Holding throughout (settings): both partners purified
In assay [1] the target is T1, recombinant HA of pH1N1 A/California/04/2009 (Influenza A virus A/California/04/2009 …, UniProt C3W5S1, strain).
T1 construct: source: bought: Protein Sciences Corp., Meriden, CT
Kind of assay: SPR.

In assay [2] the target is recombinant influenza B HA (B/Brisbane/60/08) (Influenza B virus B/Brisbane/60/2008, UniProt C0LT35, strain). Kind of assay: ELISA. For orientation: An ELISA detects its analyte on a solid surface through an enzyme-linked reagent.
Assay [3] deals with recombinant influenza A H1 HA (A/Brisbane/59/07) (Influenza A virus A/Brisbane/59/2007 …, UniProt D5F1Q8, strain). Nature of the assay: ELISA.
The target of assay [4] is recombinant HA of A/USSR/1977 H1N1 (Influenza A virus A/USSR/90/1977 …, UniProt P03453, strain). Nature of the assay: mPLEX-Flu multiplex fluorescent-bead assay (Luminex).
The target in assay [5] is recombinant HA of A/South Carolina/01/1918 H1N1 (Influenza A virus A/South …, UniProt Q9WFX3, strain). The assay is described as above.

B1: KPF1 human monoclonal antibody (antibody, V domains shown)
VH: EVQLLESGGGLVQPGGSLRISCAASGSTFGDFAMSWVRQSPGRGLEWVSVTSAGGDRTYYADSVKGRFTISRDNSKNTLYLQMNSLRGEDTAMYYCARLDSSGFHYGRPGRNWGQGTLVTVSS
VL: DIQMTHSPPSLSASVGDRITITCQASQDISYYLIWYQQKPGKAPKPLIYDASNLEAGVPSRFSASGSGTDFTLTISSLQPEDLATYYCQQYKSLPYTFGQGTKLEIK
notes: also called KPF1 hmAb; hmAb KPF1
The term Kd denotes the constant that tells how readily two partners part at equilibrium. As for B1, the Kd in assay [1] came out at 0.178 nM. In addition, the binding result in assay [2] is “no binding”; in assay [3], “binds”; in assay [4], “no binding (tested: 1 μg/ml)”; in assay [5], “binds”.

The values above are taken from PMC5847613 (Scientific Reports, 2018).
